Data as given in PMC5158307, “Substrate specificity characterization for eight putative nudix hydrolases. Evaluation of criteria for substrate identification within the Nudix family” (Proteins, 2016).

Key:
Test in all cases: purified protein
Settings in all cases: pH 7.6, 37 °C, 1 mM MgCl2, 10 mM Tris-HCl
purified protein [1] = substrate: Cc1cn([C@H]2C[C@H](O)[C@@H](COP(=O)(O)OP(=O)(O)OP(=O)(O)O)O2)c(=O)nc1N
Text: (§1) Pi-sensor (MDCC-PBP) fluorescence, PPase coupled on Q5LBB1_BACFN

purified protein [2] = substrate: Nc1nc(=O)n([C@H]2C[C@H](O)[C@@H](COP(=O)(O)OP(=O)(O)OP(=O)(O)O)O2)cc1CO
Text: as §1

purified protein [3] = substrate: Cc1cn([C@@H]2O[C@H](COP(=O)(O)OP(=O)(O)OP(=O)(O)O)[C@@H](O)[C@H]2O)c(=O)nc1N
Text: as §1

purified protein [4] = substrate: Nc1nc(=O)n([C@H]2C[C@H](O)[C@@H](COP(=O)(O)OP(=O)(O)OP(=O)(O)O)O2)cc1O
Text: as §1

B1: Q5LBB1_BACFN (Bacteroides fragilis NCTC 9343) (protein)
chain: MKSIEVVAAVIRLGEKYLCVQRGQTKFSYTSFRYEFPGGKVEEGESLQEALQREIMEEMDYVIEVGEKLLTVHHTYPDFEITMHAFLCHPVGQRYVLKEHIAAQWLSTREMAILDWAEADKPIVRKISEQ
Question: What does the source list for B1?
Answer: Km (purified protein [1]): 3.0 ± 0.8 µM; kcat (purified protein [1]): 14 ± 1 s⁻¹; kcat/Km (purified protein [1]): 4.8e+06 ± 1e+06 M⁻¹ s⁻¹; Km (purified protein [2]): 10 ± 5 µM; kcat (purified protein [2]): 45 ± 11 s⁻¹; kcat/Km (purified protein [2]): 4.4e+06 ± 1e+06 M⁻¹ s⁻¹; Km (purified protein [3]): 2.5 ± 1.2 µM; kcat (purified protein [3]): 16 ± 3 s⁻¹; kcat/Km (purified protein [3]): 6.7e+06 ± 2.4e+06 M⁻¹ s⁻¹; Km (purified protein [4]): 9.2 ± 2.8 µM; kcat (purified protein [4]): 0.78 ± 0.11 s⁻¹; kcat/Km (purified protein [4]): 85000 ± 14000 M⁻¹ s⁻¹
